Data taken from PMC8934648, “The MukB-topoisomerase IV interaction mutually suppresses their catalytic activities” (Nucleic Acids Research, 2021).
Residue numbers refer to the chain shown, from its start.

T1: MukB (Escherichia coli, UniProt P22523 1-1486)
T1 sequence: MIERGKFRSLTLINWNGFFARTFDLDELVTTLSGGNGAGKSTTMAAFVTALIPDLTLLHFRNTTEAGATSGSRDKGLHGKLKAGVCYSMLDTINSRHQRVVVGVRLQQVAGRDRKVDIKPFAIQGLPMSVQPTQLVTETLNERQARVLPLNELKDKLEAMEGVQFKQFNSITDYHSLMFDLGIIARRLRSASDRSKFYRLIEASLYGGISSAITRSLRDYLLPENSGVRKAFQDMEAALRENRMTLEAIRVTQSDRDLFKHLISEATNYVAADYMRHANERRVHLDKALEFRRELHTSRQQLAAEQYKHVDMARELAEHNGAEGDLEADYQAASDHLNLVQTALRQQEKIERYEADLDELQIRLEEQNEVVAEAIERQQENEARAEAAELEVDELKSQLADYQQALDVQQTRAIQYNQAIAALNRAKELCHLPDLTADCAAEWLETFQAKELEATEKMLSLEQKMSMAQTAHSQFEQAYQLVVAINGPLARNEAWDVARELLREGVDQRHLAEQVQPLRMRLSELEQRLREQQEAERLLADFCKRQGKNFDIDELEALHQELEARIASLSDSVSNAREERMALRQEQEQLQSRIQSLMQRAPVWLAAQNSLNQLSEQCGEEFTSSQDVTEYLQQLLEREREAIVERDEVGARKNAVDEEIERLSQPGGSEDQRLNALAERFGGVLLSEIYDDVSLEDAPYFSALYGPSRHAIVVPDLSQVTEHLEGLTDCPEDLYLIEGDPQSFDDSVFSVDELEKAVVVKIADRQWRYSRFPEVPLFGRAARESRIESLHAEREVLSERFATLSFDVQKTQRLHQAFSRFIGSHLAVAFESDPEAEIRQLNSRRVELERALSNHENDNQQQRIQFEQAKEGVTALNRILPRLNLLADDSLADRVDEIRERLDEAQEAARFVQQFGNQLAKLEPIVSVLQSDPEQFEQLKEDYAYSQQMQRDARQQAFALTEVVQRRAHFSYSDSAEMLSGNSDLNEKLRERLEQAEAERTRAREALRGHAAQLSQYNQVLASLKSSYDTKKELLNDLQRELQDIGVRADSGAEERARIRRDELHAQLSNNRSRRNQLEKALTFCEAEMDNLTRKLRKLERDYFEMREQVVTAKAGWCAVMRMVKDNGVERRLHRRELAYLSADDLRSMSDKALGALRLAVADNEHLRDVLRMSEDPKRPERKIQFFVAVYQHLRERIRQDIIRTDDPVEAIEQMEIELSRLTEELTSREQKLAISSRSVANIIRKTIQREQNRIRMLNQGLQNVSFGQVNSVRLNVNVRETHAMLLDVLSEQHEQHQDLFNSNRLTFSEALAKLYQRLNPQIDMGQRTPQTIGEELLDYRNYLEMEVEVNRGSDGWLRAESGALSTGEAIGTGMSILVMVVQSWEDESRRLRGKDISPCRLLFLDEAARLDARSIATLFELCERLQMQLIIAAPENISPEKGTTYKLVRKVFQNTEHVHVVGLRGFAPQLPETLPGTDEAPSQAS

T2: MukBtriple (MukB3X) (Escherichia coli, UniProt P22523 1-1486, D697K;D745K;E753K)
T2 sequence: T1 sequence with D697K, D745K, E753K

T3: MukB (E. coli, UniProt P22523 1-1486)
T3 construct: MukB, SMC-like condensin of Escherichia coli; also called condensin MukB; wild-type MukB
T3 sequence (looked up): T1 sequence

B1: 50mer duplex DNA (dsDNA)
DNA 1: ATCTCGGGCTATTCTTTTGATTTATAAGGGATTTTGCCGATTTCGGAACC
DNA 2: GGTTCCGAAATCGGCAAAATCCCTTATAAATCAAAAGAATAGCCCGAGAT
B2: ParC subunit of topoisomerase IV (natural protein, E. coli, UniProt P0AFI2 1-752, looked up)
chain: MSDMAERLALHEFTENAYLNYSMYVIMDRALPFIGDGLKPVQRRIVYAMSELGLNASAKFKKSARTVGDVLGKYHPHGDSACYEAMVLMAQPFSYRYPLVDGQGNWGAPDDPKSFAAMRYTESRLSKYSELLLSELGQGTADWVPNFDGTLQEPKMLPARLPNILLNGTTGIAVGMATDIPPHNLREVAQAAIALIDQPKTTLDQLLDIVQGPDYPTEAEIITSRAEIRKIYENGRGSVRMRAVWKKEDGAVVISALPHQVSGARVLEQIAAQMRNKKLPMVDDLRDESDHENPTRLVIVPRSNRVDMDQVMNHLFATTDLEKSYRINLNMIGLDGRPAVKNLLEILSEWLVFRRDTVRRRLNYRLEKVLKRLHILEGLLVAFLNIDEVIEIIRNEDEPKPALMSRFGLTETQAEAILELKLRHLAKLEEMKIRGEQSELEKERDQLQGILASERKMNNLLKKELQADAQAYGDDRRSPLQEREEAKAMSEHDMLPSEPVTIVLSQMGWVRSAKGHDIDAPGLNYKAGDSFKAAVKGKSNQPVVFVDSTGRSYAIDPITLPSARGQGEPLTGKLTLPPGATVDHMLMESDDQKLLMASDAGYGFVCTFNDLVARNRAGKALITLPENAHVMPPVVIEDASDMLLAITQAGRMLMFPVSDLPQLSKGKGNKIINIPSAEAARGEDGLAQLYVLPPQSTLTIHVGKRKIKLRPEELQKVTGERGRRGTLMRGLQRIDRVEIDSPRRASSGDSEE
notes: ParC, breakage and reunion subunit of topoisomerase IV of Escherichia coli; also called wild-type ParC; Cwt

Columns and labels:
[1] = biological target: T1, MukB; experiment: DNA binding assay (method not stated in material); 0.5 mM Mg(OAc)2; apparent Kd; 50 mer binding: 50 mM HEPES-KOH pH 7.5, 10 mM DTT, 20 mM KCl, 0.5 mM Mg(OAc)2, 5 nM DNA; pull-down: same buffer plus 7.5% glycerol, 0.05% NP-40, loading at room temperature, assay at 37 C; conditions: protein: recombinant; chain copies: 2; label: 5'-32P; blunt
[2] = biological target: T2, MukBtriple (MukB3X); experiment: as above; conditions: protein: recombinant; chain copies: 2; label: 5'-32P; blunt
[3] = biological target: T3, MukB; experiment: pull-down; MukB (125 nM) held on Dynabeads Protein A through affinity-purified MukB polyclonal antibodies; varying ParC; 50 mM HEPES-KOH pH 7.5, 50 mM KCl, 0.5 mM Mg(OAc)2, 7.5% glycerol, 0.05% IGEPAL, 15 min at 37°C; bound protein read from SDS-PAGE bands; fit to the Hill equation; KD dimer to dimer; conditions: both partners purified

Binder | Kd [1] | Kd [2] | Kd [3]
B1 | 120 nM | 30 nM | 
B2 |  |  | 115 nM
